Data on one molecule can be found in publication PMC12607630, “ZapC crosslinks FtsZ filaments through a dual-binding mechanism modulated by the intrinsically disordered linker of FtsZ in Escherichia coli” (mBio, 2025).

“And” between values parts separate entries of the source, which are not always exact repeats. Equal values may be shown once.

Common to all, as to assay: BLI; 6×His-ZapC or its mutants (0.5 µM) loaded on Ni-NTA biosensors, untagged FtsZ or its variants in solution; Octet-Red96, 30°C, 1× Pol buffer (50 mM HEPES-NaOH pH 6.8, 50 mM KCl, 10 mM MgCl2); apparent Kd from the signal at the end of association against concentration, one-site fit; three repeats with mean (X) and SD
Holding throughout (conditions): both partners purified

For assay [1], the target named is T1, FtsZ I323L (untagged) (Escherichia coli, UniProt P0A9A6 1-383, I323L).
T1 construct: FtsZ of Escherichia coli with I323L (CTL); Derivative of pLY17 by site-directed mutagenesis; source: E. coli BL21(DE3), plasmid pLY20, purified (Ni-NTA); 6×His-SUMO tag removed with Ulp1; not shown: 6×His-SUMO, N-terminal, cleaved
T1 sequence (looked up): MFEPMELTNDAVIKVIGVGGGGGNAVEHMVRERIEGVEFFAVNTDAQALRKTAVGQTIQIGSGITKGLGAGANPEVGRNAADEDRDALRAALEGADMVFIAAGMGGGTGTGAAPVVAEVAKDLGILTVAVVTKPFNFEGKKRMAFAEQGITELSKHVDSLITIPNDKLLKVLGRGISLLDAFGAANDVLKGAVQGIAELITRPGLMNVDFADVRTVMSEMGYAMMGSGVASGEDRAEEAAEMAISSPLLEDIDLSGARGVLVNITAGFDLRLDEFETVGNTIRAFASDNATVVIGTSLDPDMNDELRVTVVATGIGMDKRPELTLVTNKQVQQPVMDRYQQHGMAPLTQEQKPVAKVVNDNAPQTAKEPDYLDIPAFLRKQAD

The target in assay [2] is T2, FtsZ 1-370 (untagged) (Escherichia coli, UniProt P0A9A6 1-370).
T2 construct: FtsZ of Escherichia coli, residues 1-370; lacks the CTP; Primers BsaI-out-F and 370XbaI-out-R; forward primer starts at codon 2; source: E. coli BL21(DE3), plasmid pLY341, purified (Ni-NTA); 6×His-SUMO tag removed with Ulp1; not shown: 6×His-SUMO, N-terminal, cleaved
T2 sequence (looked up): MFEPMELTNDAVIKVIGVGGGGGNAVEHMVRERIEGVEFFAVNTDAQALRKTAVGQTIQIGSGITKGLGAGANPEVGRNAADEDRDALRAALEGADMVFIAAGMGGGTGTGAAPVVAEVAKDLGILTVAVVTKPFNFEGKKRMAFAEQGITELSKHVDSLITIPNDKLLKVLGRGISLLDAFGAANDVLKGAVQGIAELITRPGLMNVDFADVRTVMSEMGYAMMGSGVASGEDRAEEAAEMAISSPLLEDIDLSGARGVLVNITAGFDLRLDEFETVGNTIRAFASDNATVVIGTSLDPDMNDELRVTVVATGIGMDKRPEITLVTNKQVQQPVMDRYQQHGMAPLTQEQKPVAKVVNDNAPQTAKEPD

In assay [3] the target is T3, FtsZ 1-316 (untagged) (Escherichia coli, UniProt P0A9A6 1-316).
T3 construct: lacks the entire CTL and the CTP; source: E. coli BL21(DE3), plasmid pLY343, purified (Ni-NTA); 6×His-SUMO tag removed with Ulp1; not shown: 6×His-SUMO, N-terminal, cleaved
T3 sequence (looked up): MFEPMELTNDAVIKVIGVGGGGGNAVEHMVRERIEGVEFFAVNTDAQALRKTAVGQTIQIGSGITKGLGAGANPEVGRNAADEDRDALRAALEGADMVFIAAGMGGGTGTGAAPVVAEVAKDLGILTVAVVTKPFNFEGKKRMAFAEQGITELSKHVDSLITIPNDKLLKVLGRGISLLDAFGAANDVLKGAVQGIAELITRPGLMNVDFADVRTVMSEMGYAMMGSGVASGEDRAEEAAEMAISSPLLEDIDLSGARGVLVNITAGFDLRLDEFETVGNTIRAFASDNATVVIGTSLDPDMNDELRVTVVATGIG

The target in assay [4] is T4, FtsZ D360Y (untagged) (Escherichia coli, UniProt P0A9A6 1-383, D360Y).
T4 construct: FtsZ of Escherichia coli with D360Y (CTL); Derivative of pLY17 by site-directed mutagenesis; source: E. coli BL21(DE3), plasmid pLY339, purified (Ni-NTA); 6×His-SUMO tag removed with Ulp1; not shown: 6×His-SUMO, N-terminal, cleaved
T4 sequence (looked up): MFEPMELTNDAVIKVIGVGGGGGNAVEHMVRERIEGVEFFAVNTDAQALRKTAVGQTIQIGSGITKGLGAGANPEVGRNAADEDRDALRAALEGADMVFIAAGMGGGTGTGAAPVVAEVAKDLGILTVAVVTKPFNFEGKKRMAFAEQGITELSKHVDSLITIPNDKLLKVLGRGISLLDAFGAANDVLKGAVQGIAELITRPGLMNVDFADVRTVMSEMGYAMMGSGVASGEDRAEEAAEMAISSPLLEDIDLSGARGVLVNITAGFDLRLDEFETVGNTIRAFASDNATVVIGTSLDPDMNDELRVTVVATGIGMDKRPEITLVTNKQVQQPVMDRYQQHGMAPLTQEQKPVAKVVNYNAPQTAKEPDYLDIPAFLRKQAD

B1: 6×His-ZapC (natural protein)
chain: not shown
notes: ZapC, FtsZ-associated protein of Escherichia coli; Construction of pSD323 is not described; also called His-tagged ZapC; source: E. coli, plasmid pSD323 (pQE80, Plac::6×His-ZapC), purified (Ni-NTA); not shown: His6, N-terminal, kept
Turning to B1, the Kd in assay [1] was 0.647 µM and 0.635 µM and 0.62 µM and 0.579 µM; in assay [2] it was 1.54 µM and 1.19 µM and 1.26 µM and 1.33 µM; in assay [3] it was 1.54 µM and 1.91 µM and 1.29 µM and 1.58 µM; in assay [4] it was 0.573 µM and 0.823 µM and 0.735 µM and 0.71 µM.
